Reference: article PMC6069114, “Fungal Light-Oxygen-Voltage Domains for Optogenetic Control of Gene Expression and Flocculation in Yeast” (mBio, 2018)

Key:
[1] = target: T1, LOV domain of White Collar 1 (WC-1) bound to the Gal4 DNA binding domain (Neurospora crassa, UniProt Q01371 381-508); test: two-hybrid; FUN-LOV switch in S. cerevisiae; luciferase activity in protein extracts of cells grown 8 h in constant light (LL) against constant darkness (DD), normalised to total protein; details: partners not purified
T1 construct: White Collar 1 (WC-1), blue-light photoreceptor of Neurospora crassa; LOV domain only; also called WC-1 LOV-BD; WC-1 LOV plus GAL4-DBD; source: yeast two-hybrid fusion; S. cerevisiae BY4741 (wt or gal4Δ-gal80Δ), episomal pRS423, ADH1 promoter
T1 sequence (looked up): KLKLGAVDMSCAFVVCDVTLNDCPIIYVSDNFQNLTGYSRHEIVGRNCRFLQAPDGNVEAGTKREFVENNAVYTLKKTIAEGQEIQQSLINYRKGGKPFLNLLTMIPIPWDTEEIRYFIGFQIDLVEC

[2] = target: T1, LOV domain of White Collar 1 (WC-1) …; test: two-hybrid; FUN-LOV switch in S. cerevisiae; destabilized firefly luciferase reporter under P_(GAL1) or P_(5XGAL1); luminescence of living cells normalised by OD600; constant white light (100 µmol m^-2 s^-1) or constant blue light (20 µmol m^-2 s^-1), 30°C; fold induction against the average background in constant darkness; details: partners not purified

B1: full-length VIVID (VVD) tethered to the Gal4 transactivation domain (natural protein, Neurospora crassa, UniProt Q9C3Y6 1-186, looked up)
chain: MSHTVNSSTMNPWEVEAYQQYHYDPRTAPTANPLFFHTLYAPGGYDIMGYLIQIMNRPNPQVELGPVDTSCALILCDLKQKDTPIVYASEAFLYMTGYSNAEVLGRNCRFLQSPDGMVKPKSTRKYVDSNTINTMRKAIDRNAEVQVEVVNFKKNGQRFVNFLTMIPVRDETGEYRYSMGFQCETE
notes: VIVID (VVD), blue-light photoreceptor of Neurospora crassa; full-length VVD and not just VVD-36; also called VVD-AD; VVD plus GAL4-AD; source: yeast two-hybrid fusion; S. cerevisiae BY4741 (wt or gal4Δ-gal80Δ), episomal pRS425, ADH1 promoter
fold induction of luciferase activity in protein extracts, LL over DD [1]: ~2500 fold | fold induction of the luciferase reporter, blue light over darkness (P_(5XGAL1)) [2]: 1320 fold | fold induction of the luciferase reporter, white light over darkness (P_(5XGAL1)) [2]: 1220 fold
